These results are taken from paper PMC3990709, “Structural Differences Explain Diverse Functions of Plasmodium Actins” (PLoS Pathogens, 2014).

This data set concerns the molecule itself. Briefly: native gel or EMSA; native PAGE, ATP form, 0.1 mM CaCl2 and 0.5 mM ATP in the running buffer, 277 K; samples 6.7 µM, immediately and 48 h after purification (stored on ice).

What is called stoichiometry N is a count of units in the complex or per binding partner.

Where “and” joins values, the source holds several entries; their conditions need not be identical. Equal entries are not always repeated.

B1: Plasmodium falciparum actin I (natural protein)
chain: not shown
notes: actin I of Plasmodium falciparum, PlasmoDB PF3D7_1246200; also called PfActI; Plasmodium actin I; source: Sf21 cells at 300 K, purified (size exclusion chromatography), alone or as a complex with G1
With B1, the “stoichiometry N” value is 4 and 12.
